Source: the supplement of paper PMC10567573

B1: FBXO3 (parent)
chain: AGGFQQRQGLKYCLPLTFCIHTGL

Variants of: B1
Assay: protein stability index of a GFP-peptide fusion (GPS, HEK-293T) (PSI 1-6); higher = more stable
Conditions: c terminus: a fixed tail appended
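Further: lentivirally expressed fusions sorted by FACS into six bins by GFP to DsRed ratio, PSI derived from sequencing read proportions per bin multiplied by bin number.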

Row | Variant | protein stability index
1 | AGGFQQRQGLKTCLPLTFCIHTGL [Y12T] | 2.2
2 | AGGFQQRQGLKYCLPLDFCIHTGL [T17D] | 1.55
3 | AGGFQQRQGLKYCLPLMFCIHTGL [T17M] | 3.43
4 | AGGFQQRQGLKYCLPLGFCIHTGL [T17G] | 2.31
5 | AGGFQQRQGLKYCLPLFFCIHTGL [T17F] | 1.67
6 | AGGFQQRQGLKYCLPLHFCIHTGL [T17H] | 3.39
7 | AGGFQQRQGLKYCLPLCFCIHTGL [T17C] | 2.73
8 | AGGFQQRQGLKYCLPLKFCIHTGL [T17K] | 2.75
9 | AGGFQQRQGLKYCLPLPFCIHTGL [T17P] | 2.59
10 | AGGFQQRQGLKYCLPLWFCIHTGL [T17W] | 3.79
11 | AGGFQQRQGLKYCLPLRFCIHTGL [T17R] | 2.87
12 | AGGFQQRQGLKYCLPLNFCIHTGL [T17N] | 1.66
13 | AGGFQQRQGLKYCLPLYFCIHTGL [T17Y] | 2.69
14 | AGGFQQRQGLKYCLPLQFCIHTGL [T17Q] | 2.4
15 | AGGFQQRQGLKYCLPLLFCIHTGL [T17L] | 2.11
16 | AGGFQQRQGLKYCLPLEFCIHTGL [T17E] | 4.01
17 | AGGFQQRQGLKYCLPLIFCIHTGL [T17I] | 2.65
18 | AGGFQQRQGLKYCLPLVFCIHTGL [T17V] | 3.17
19 | AGGFQQRQELKYCLPLTFCIHTGL [G9E] | 1.87
20 | AGGFQQRQFLKYCLPLTFCIHTGL [G9F] | 2.58
21 | AGGFQQRQLLKYCLPLTFCIHTGL [G9L] | 3.97
22 | AGGFQQRQRLKYCLPLTFCIHTGL [G9R] | 1.48
23 | AGGFQQRQNLKYCLPLTFCIHTGL [G9N] | 2.28
24 | AGGFQQRQDLKYCLPLTFCIHTGL [G9D] | 2.68

Row | Variant | protein stability index
25 | AGGFQQRQYLKYCLPLTFCIHTGL [G9Y] | 3.4
26 | AGGFQQRQMLKYCLPLTFCIHTGL [G9M] | 3.48
27 | AGGFQQRQCLKYCLPLTFCIHTGL [G9C] | 2.68
28 | AGGFQQRQSLKYCLPLTFCIHTGL [G9S] | 3.54
29 | AGGFQQRQHLKYCLPLTFCIHTGL [G9H] | 2.94
30 | AGGFQQRQTLKYCLPLTFCIHTGL [G9T] | 3.85
31 | AGGFQQRQKLKYCLPLTFCIHTGL [G9K] | 2.74
32 | AGGFQQRQILKYCLPLTFCIHTGL [G9I] | 2.28
33 | AGGFQQRQQLKYCLPLTFCIHTGL [G9Q] | 2.5
34 | AGGFQQRQVLKYCLPLTFCIHTGL [G9V] | 2.39
35 | AGGFQQRYGLKYCLPLTFCIHTGL [Q8Y] | 2.17
36 | AGGFQQRLGLKYCLPLTFCIHTGL [Q8L] | 2.56
37 | AGGFQQRRGLKYCLPLTFCIHTGL [Q8R] | 2.99
38 | AGGFQQRMGLKYCLPLTFCIHTGL [Q8M] | 2.24
39 | AGGFQQRWGLKYCLPLTFCIHTGL [Q8W] | 2.88
40 | AGGFQQRVGLKYCLPLTFCIHTGL [Q8V] | 2.22
41 | AGGFQQRTGLKYCLPLTFCIHTGL [Q8T] | 3.56
42 | AGGFQQRQGLKYCLPLTFFIHTGL [C19F] | 2.44
43 | AGGFQQRQGLKYCLPLTFSIHTGL [C19S] | 2.64
44 | AGGFQQRQGLKYCLPLTFNIHTGL [C19N] | 2.04
45 | AGGFQQRQGLKYCLPLTFPIHTGL [C19P] | 1.87
46 | AGGFQQRQGLKYCLPLTFKIHTGL [C19K] | 2.21
47 | AGGFQQRQGLKYCLPLTFIIHTGL [C19I] | 1.6
48 | AGGFQQRQGLKYCLPLTFAIHTGL [C19A] | 3.9

Row | Variant | protein stability index
49 | AGGFQQRQGLKYCLPLTFEIHTGL [C19E] | 3.11
50 | AGGFQQRQGLKYCLPLTFDIHTGL [C19D] | 1.46
51 | AGGFQQRQGLKYCLPLTFHIHTGL [C19H] | 2.66
52 | AGGFQQRQGLKYCLPLTFVIHTGL [C19V] | 2.83
53 | AGGFQQRQGLKYCLPLTFLIHTGL [C19L] | 2.86
54 | AGGFQQRQGLKYCLPLTFRIHTGL [C19R] | 2.8
55 | AGGFQQRQGLKYCLPLTFTIHTGL [C19T] | 3.13
56 | AGGFQQRQGLKYCLPLTFQIHTGL [C19Q] | 1.74
57 | AGGFQQRQGLKYCLPLTFGIHTGL [C19G] | 1.97
58 | AGGFQQRQGLKYCLPLTFYIHTGL [C19Y] | 2.67
59 | AGGFQQRQGLKYCLPLTFMIHTGL [C19M] | 2.71
60 | AGGFQQRQGLKYCDPLTFCIHTGL [L14D] | 1.78
61 | AGGFQQRQGLKYCMPLTFCIHTGL [L14M] | 2.42
62 | AGGFQQRQGLKYCTPLTFCIHTGL [L14T] | 1.84
63 | AGGFQQRQGLKYCPPLTFCIHTGL [L14P] | 1.56
64 | AGGFQQRQGLKYCNPLTFCIHTGL [L14N] | 2.34
65 | AGGFQQRQGLKYCEPLTFCIHTGL [L14E] | 1.97
66 | AGGFQQRQGLKYCVPLTFCIHTGL [L14V] | 4.27
67 | AGGFQQRQGLKYCGPLTFCIHTGL [L14G] | 3.59
68 | AGGFQQRQGLKYCHPLTFCIHTGL [L14H] | 1.75
69 | AGGFQQRQGLKYCSPLTFCIHTGL [L14S] | 2.67
70 | AGGFQQRQGLKYCQPLTFCIHTGL [L14Q] | 2.57
71 | AGGFQQRQGLKYCCPLTFCIHTGL [L14C] | 3.66
72 | AGGFQQRQGLKYCKPLTFCIHTGL [L14K] | 2.73

Row | Variant | protein stability index
73 | AGGFQQRQGLKYCAPLTFCIHTGL [L14A] | 2.7
74 | AGGFQQRQGLKYCRPLTFCIHTGL [L14R] | 2.88
75 | AGGFQQRQGLKYCYPLTFCIHTGL [L14Y] | 2.16
76 | AGGFQQRQGLKYCIPLTFCIHTGL [L14I] | 4.28
77 | AGGFQQRQGLQYCLPLTFCIHTGL [K11Q] | 2.75
78 | AGGFQQRQGLMYCLPLTFCIHTGL [K11M] | 1.96
79 | AGGFQQRQGLEYCLPLTFCIHTGL [K11E] | 2.8
80 | AGGFQQRQGLWYCLPLTFCIHTGL [K11W] | 4.04
81 | AGGFQQRQGLYYCLPLTFCIHTGL [K11Y] | 2.43
82 | AGGFQQRQGLIYCLPLTFCIHTGL [K11I] | 3.42
83 | AGGFQQRQGLNYCLPLTFCIHTGL [K11N] | 1.99
84 | AGGFQQRQGLCYCLPLTFCIHTGL [K11C] | 2.12
85 | AGGFQQRQGLGYCLPLTFCIHTGL [K11G] | 3.61
86 | AGGFQQRQGLFYCLPLTFCIHTGL [K11F] | 3.02
87 | AGGFQQRQGLSYCLPLTFCIHTGL [K11S] | 2.74
88 | AGGFQQRQGLLYCLPLTFCIHTGL [K11L] | 2.21
89 | AGGFQQRQGLHYCLPLTFCIHTGL [K11H] | 2.35
90 | AGGFQQRQGLDYCLPLTFCIHTGL [K11D] | 3.52
91 | AGGFQQRQGLRYCLPLTFCIHTGL [K11R] | 2.03
92 | AGGFQQRQGLAYCLPLTFCIHTGL [K11A] | 2.43
93 | AGGFQQRQGLTYCLPLTFCIHTGL [K11T] | 2.45
94 | AGGFQQRQGLVYCLPLTFCIHTGL [K11V] | 3.35
